Assay results reported in patent US20080160035A1 (Regeneron, published 2008).
Positions count from the first letter of the chain named.

T1: monomeric hIL-4R (R&D Systems) (human, UniProt P24394 26-231)
T1 construct: Bought (R&D Systems); also called hIL-4R monomer
T1 sequence: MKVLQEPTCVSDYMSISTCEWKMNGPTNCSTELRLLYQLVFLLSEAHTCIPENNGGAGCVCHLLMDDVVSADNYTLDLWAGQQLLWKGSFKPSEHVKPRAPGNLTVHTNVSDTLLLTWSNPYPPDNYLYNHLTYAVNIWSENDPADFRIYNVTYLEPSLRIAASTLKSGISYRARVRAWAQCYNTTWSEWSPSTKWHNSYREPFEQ

T2: dimeric hIL-4R-hFc (human, UniProt P24394 26-232)
T2 construct: also called hIL-4R-Fc; not shown: human Fc (hFc)
T2 sequence: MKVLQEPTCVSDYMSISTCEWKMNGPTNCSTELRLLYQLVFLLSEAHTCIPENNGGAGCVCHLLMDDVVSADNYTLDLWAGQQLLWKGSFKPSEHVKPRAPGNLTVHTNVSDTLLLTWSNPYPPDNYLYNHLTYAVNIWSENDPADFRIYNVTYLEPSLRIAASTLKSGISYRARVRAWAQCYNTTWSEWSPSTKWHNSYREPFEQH

T3: hIL-4R on cells (STAT6-transfected HEK293, TF1, TF1/A12) (human, UniProt P24394 26-825)
T3 sequence (looked up): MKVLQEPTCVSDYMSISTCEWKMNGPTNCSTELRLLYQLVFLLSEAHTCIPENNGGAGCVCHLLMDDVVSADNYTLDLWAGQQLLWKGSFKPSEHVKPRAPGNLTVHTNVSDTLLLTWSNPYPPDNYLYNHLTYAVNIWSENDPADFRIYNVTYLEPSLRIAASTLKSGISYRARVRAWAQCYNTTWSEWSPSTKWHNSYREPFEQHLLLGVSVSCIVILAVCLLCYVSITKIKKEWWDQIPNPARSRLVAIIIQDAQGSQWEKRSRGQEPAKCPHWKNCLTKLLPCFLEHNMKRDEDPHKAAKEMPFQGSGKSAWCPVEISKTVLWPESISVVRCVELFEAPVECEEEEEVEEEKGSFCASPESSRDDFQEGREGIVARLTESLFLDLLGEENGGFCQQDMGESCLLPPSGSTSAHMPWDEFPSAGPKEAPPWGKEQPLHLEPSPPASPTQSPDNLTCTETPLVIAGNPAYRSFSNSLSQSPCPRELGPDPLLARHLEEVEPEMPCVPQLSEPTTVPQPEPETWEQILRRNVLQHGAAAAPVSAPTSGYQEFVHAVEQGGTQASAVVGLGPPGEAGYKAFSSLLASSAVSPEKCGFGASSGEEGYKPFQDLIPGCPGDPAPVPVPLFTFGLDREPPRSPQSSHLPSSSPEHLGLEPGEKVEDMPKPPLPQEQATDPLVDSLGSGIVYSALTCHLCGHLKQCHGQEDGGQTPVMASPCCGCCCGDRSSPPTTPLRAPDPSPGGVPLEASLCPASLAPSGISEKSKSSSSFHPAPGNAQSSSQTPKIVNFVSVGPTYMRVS

T4: mouse IL-4R (mouse, UniProt P16382 26-233, limits assumed)
T4 sequence (looked up): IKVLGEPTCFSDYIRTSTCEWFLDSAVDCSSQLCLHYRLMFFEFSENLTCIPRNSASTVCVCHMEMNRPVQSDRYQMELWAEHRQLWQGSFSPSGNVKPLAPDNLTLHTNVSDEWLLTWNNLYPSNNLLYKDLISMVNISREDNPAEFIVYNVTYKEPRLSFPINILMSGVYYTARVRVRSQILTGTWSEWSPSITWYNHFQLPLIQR

B1: VAK9C6-11 (antibody, V domains shown)
VH: QVQLVESGGGVVQPGRSLRLSCAASGFTFSSYGMHWVRQAPGKGLEWVTVISYDGSIKYYVDSVKGRFTISRDNSKNTLFLQMNSLRVEDTAVYYCAKEGRKYGMDVWGQGTTVTVSS
VL: DIQMTQSPSTLSASVGDRVTITCRASQIISSLLVWYQQKPGKAPKLLIYKASSLESGVPSRFSGSGSGTEFTLTISSLQPDDFATYYCQQYHSYMYTFGQGTKLEIK
notes: Apparently tested with mouse constant region (anti-mouse IgG capture/detection)
B2: VAK12B11-9 (antibody, V domains shown)
VH: QVQLVESGGGVVQPGRSLRLSCAASGFTFSSYAMYWVRQAPGKGLEWVAVISYDGSNKYYTDSVKGRFTVSRDNSKNTLFLQMNSLRAEDTALYYCAKESSSYGLDVWGQGTTVTVSS
VL: B1 VL with T20A, I28S, S31N, L32W, V34A, Y49S, E55K, T85A, H92N, M95S
notes: as for B1
B3: VAK8G11-13 (antibody, V domains shown)
VH: QVRLVESGGGVVQPGGSLRLSCAASGFIFRSYGMHWVRQAPGRGLEWVAVISYDGSKTFYVDSVKVRFTISRDNSKNTLYLEMNSLRVDDTAVYFCVKEGRSGSWFDPWGQGTLVAVSS
VL: DIHMTQSPSSLSASVGDRVTITCRASQAINNFLAWFQQKPGKTPKSLIFATSSLQSGVPSRFSGSGSGTDFTLTISSLQPEDFATYYCQQYNSHPWTFGQGTKVEIK
notes: as for B1
B4: VAK10G12-5 (antibody, V domains shown)
VH: QVQLVESGGGVVQPGGSLRLSCAASGFTFSSYGMHWVRQAPGRGLEWVAVLSYDGSKEFYADSVKVRFTVSRDNSKNTLYLQMSSLRVEDTAIYFCAKEGRTGNWFDPWGQGTLVAVSS
VL: B3 VL with H3Q, G66E
notes: as for B1
B5: VAK10G6-7 (antibody, V domains shown)
VH: B4 VH with G16R, A23T, Y32F, L51I, E58K, F59Y, V70I, S84N, E89D, I93V
VL: B3 VL with H3Q, F32Y, S65T, K107R
notes: as for B1
B6: VAK11D4-1 (antibody, V domains shown)
VH: B3 VH with G16R, A23V, I28T, K57Q, K76N
VL: B3 VL with F32Y, K42R
notes: as for B1
B7: VAK7G8-5 (antibody, V domains shown)
VH: B3 VH with A23T
VL: B3 VL with K107R
notes: as for B1
B8: VAK5H4-4 (antibody, V domains shown)
VH: B3 VH with A23V, I28T
VL: B3 VL with H3Q, K45N, G64A, S65G
notes: as for B1

Tests used:
[1] = molecular target: T1, monomeric hIL-4R (R&D Systems); experiment: SPR (BIAcore 2000); antibody captured, monomeric hIL-4R injected
Procedure: (§1) Binding affinity (KD) of selected antibodies with respect to hIL-4R was determined using a real-time biosensor surface plasmon resonance assay (BIAcore™ 2000). Briefly, antibody was captured on a goat anti-mouse (GAM) IgG polyclonal antibody surface created through direct chemical coupling of the GAM IgG to a BIAcore™ chip to form a captured antibody surface. […] Binding of antigen to antibody and dissociation of the bound complex, were monitored in real time. Equilibrium dissociation constants (KD) and dissociation rate constants were ascertained by performing kinetic analysis using BIA evaluation software. BIA evaluation software was also used to calculate the half-life of antigen/antibody complex dissociation (T_{1/2}). […] The binding affinity of anti-hIL-4R antibodies to either mouse or monkey (Macaca fascicularis) IL-4R was also tested.

[2] = molecular target: T2, dimeric hIL-4R-hFc; experiment: ELISA; antibody titrated against 25 pM hIL-4R-Fc, free receptor caught on hIL-4 plate
Procedure: Concentration of free hIL-4R-Fc (no antibody bound) was determined using a hIL-4R-specific sandwich ELISA. […] After a one-hour incubation at room temperature, the detection plate was washed and plate-bound hIL-4R-hFc was detected using HRP conjugated goat anti-hFc polyclonal antibodies and developed using colorimetric substrates such as BD OptEIA™ (BD Biosciences Pharmingen, San Diego, Calif.). After the reaction was stopped with 1 M phosphoric or sulfuric acid, absorbances at 450 nm were recorded and the data were analyzed using GraphPad™ Prism software.

[3] = molecular target: T2, dimeric hIL-4R-hFc; experiment: SPR (BIAcore 2000); antibody captured, dimeric hIL-4R-hFc injected
Procedure: as §1

[4] = molecular target: T3, hIL-4R on cells (STAT6-transfected …); experiment: cell-based or functional assay
[5] = molecular target: T2, dimeric hIL-4R-hFc; experiment: SPR; reduction of hIL-4 (50 nM) binding to captured hIL-4R-hFc after antibody; competitor hIL-4
Source text: Purified hIL-4R-hFc molecules were captured by goat anti-human IgG polyclonal antibody immobilized on CM-5 to a density of 260 RU, to prepare a receptor-coated surface.

[6] = molecular target: T3, hIL-4R on cells (STAT6-transfected …); experiment: cell-based or functional assay; remark: listed apart in the source
[7] = molecular target: T4, mouse IL-4R; experiment: binding affinity test of Example 2 (method not restated)

| Kd [1] [nM] | T1/2 monomeric [1] [min] | IC50 [2] [nM] | Kd [3] [pM] | T1/2 dimeric [3] [h] | STAT6 Bioassay IC50 (HEK293 STAT6 luciferase, 40 pM hIL-13) [4] [nM] | TF1 Bioassay IC50 (proliferation, 150 pM hIL-13) [4] [nM] | % Inhibition (BIAcore) [5] [%] | STAT6 Bioassay IC50 (HEK293 STAT6 luciferase, 10 pM hIL-4) [6] [nM] | TF1 Bioassay IC50 (proliferation, 50 pM hIL-4) [6] [nM] | binding result [7] | TF1/A12 Bioassay IC50 (proliferation, 20 pM hIL-4) [6] [nM] | Binder |
| --- | --- | --- | --- | --- | --- | --- | --- | --- | --- | --- | --- | --- |
| 2.05 | 28 | 0.067 | 68 | 7 | 0.3 | 1 | 96 | 0.48 | 0.31 | no binding | – | B1 |
| 0.41 | 120 | 0.099 | 36 | 12 | 0.37 | 1.6 | 96 | 0.49 | 0.57 | no binding | – | B2 |
| 0.03 | 840 | 0.026 | 2 | 63 | 0.06 | 0.42 | 95 | 0.08 | 0.16 | no binding | – | B3 |
| 0.09 | 360 | 0.059 | 7 | 46 | 0.26 | 1.9 | 94 | 0.36 | 0.58 | no binding | – | B4 |
| 0.23 | 144 | 0.037 | 11 | 24 | 0.07 | 0.46 | 95 | 0.11 | 0.23 | no binding | – | B5 |
| 0.05 | 480 | 0.035 | 6 | 21 | 0.14 | 0.44 | 95 | 0.2 | 0.2 | no binding | – | B6 |
| 0.06 | 480 | 0.027 | 9 | 25 | 0.04 | 0.36 | 95 | 0.06 | 0.13 | no binding | – | B7 |
| 0.02 | 960 | 0.033 | 4 | 30 | 0.084 | 0.24 | 96 | 0.132 | 0.15 | no binding | 0.182 | B8 |
